Tests used:
[1] = target: rat glucagon receptor (pLJ4 transfectants) (Rattus norvegicus, UniProt P30082); test: Intracellular calcium response (fura-2 imaging) of pLJ4 BHK transfectants; assay type: cell-based; conditions: 100 nM final glucagon; resting value approximately 150 nM; from calibration experiments
Experimental: E. Intracellular Calcium Concentration Determination
Plasmid pLJ4 BHK transfectants seeded into 2 well coverglass chambers (NUNC) at 5×10^4 cells per chamber. The cells were grown for between one and three days under normal culture conditions in methotrexate selection medium. The medium was removed by aspiration, and the chambers were rinsed twice with 1 ml Imaging Buffer (Table 3). The cells were incubated for 30 minutes in the dark at room temperature with 0.5 ml of Fura-2 AM Solution (Table 3). After incubation, the Fura-2 AM Solution was removed, and the cells were rinsed with 1 ml Imaging Buffer three times. After the final rinse, 0.5 ml of buffer was left in each chamber. […]
Imaging was performed on a Nikon Diaphot inverted fluorescence microscope equipped with a mercury arc lamp and 10× and 40× Nikon Fluor dry objective lenses. Experiments were controlled and analysed using a Sun SPARC II workstation and Inovision (Research Triangle Park, N.C.) RATIOTOOL software. […] Emission images were directed by a dichroic mirror (380 nm cutoff) to a Dage-MTI 72 CCD camera equipped with a Genesis II image intensifier and digitally recorded by the software.
Intracellular calcium concentration was monitored by calculating a ratio of emission intensities at each of the two excitation wavelenths (340/380) for each pixel of the digital microscopic image field (512×480 pixels). […]

[2] = target: T1, rat liver membranes (glucagon receptor) (Rattus norvegicus, UniProt P30082); test: Competition binding / Scatchard analysis with ^125 I-glucagon on rat liver membranes; conditions: 30 minutes at 30° C., read-out: apparent Kd
T1 construct: Two batches of liver membranes were each prepared from approximately 80 gm of liver; from tissue; host or cells: rat liver membranes
T1 sequence (P30082 27-485): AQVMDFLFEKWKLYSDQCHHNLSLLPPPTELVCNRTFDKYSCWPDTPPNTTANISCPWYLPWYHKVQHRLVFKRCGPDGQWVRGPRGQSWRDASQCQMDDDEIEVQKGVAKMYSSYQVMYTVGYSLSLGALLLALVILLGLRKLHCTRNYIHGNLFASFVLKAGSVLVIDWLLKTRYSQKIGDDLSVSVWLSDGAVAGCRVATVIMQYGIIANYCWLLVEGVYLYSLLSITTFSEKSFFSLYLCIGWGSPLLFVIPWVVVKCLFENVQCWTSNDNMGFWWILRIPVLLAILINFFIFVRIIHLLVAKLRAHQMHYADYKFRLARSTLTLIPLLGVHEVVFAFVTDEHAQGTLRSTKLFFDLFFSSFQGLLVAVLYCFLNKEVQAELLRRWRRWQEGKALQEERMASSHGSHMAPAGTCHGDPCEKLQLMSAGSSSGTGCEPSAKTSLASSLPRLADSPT
Experimental: Membranes from the pLJ4 BHK transfectants were compared with rat liver membrane preparations for the ability to bind ^125 I-glucagon. Membranes were prepared essentially described by Rodbell et al. (J. Biol Chem. 246:1861-1871, 1971, which is incorporated by reference herein in its entirety). Two batches of liver membranes were each prepared from approximately 80 gm of liver from 12 to 16 decapitated young female rats. The livers were removed quickly and placed into an iced beaker. The livers were separated into ten-gram portions. The portions were minced with scissors, and connective tissue was removed during the mincing procedure. The portions were separately homogenized in a Dounce homogenizer. […] The concentration of the solution was adjusted to 44.0%+/-0.1% using 69% sucrose or water as measured by a refractometer (Bausch & Lomb, Rochester, N.Y.). […]
The supernatant was carefully decanted and discarded. […] The absorbance was read in 1 cm cuvettes to determine protein concentration. Protein concentration was determined using the formula: [formula] […]
To each tube 100 μl of 2× binding buffer; 20 μl of ^125 I-glucagon (Amersham); 20 μl of 1 mM NaHCO3; 20 μl 10 mM HOAc, 0.5% BSA (Novo Nordisk N/A, Bagsvaerd, Denmark); and 40 μl of distilled water were added. […] The supernatants from each sample were aspirated, and the pellets were counted.

rat glucagon receptor (pLJ4 transfectants), sequence (P30082 27-485): as above

Substance: glucagon: 29 amino acid hormone produced by the alpha cells of pancreatic islets; human glucagon (Sigma)
- peak intracellular calcium concentration [1]: approximately 400 nM
- Kd [2]: 49 nM

From US5919635A (ZymoGenetics, Inc., priority 1995, dated 1999)
